This data set is described as follows: label from the status in PepcDB records.
Take “MRRCCGDLAASRGGCEPASRNLTRTRLTFAALGRINRPAEHDREDAMTRQEARDHEPRDQDAALSRRTLVRGLALGAAATMAGPALAQTGPAAPPTTITTPPRDFGPNGAPTTYFWDPDIIAVDPSFDDLAQPNTAIKRLYTGVLWAEGPAWSAQGRYLLWSDIPNNRQMRWSEDDGRISVFRSPSNNSNGNSFDFQGRQLSCEHLTRRVTRYEHDGTATVLCDNYNGKKLNSPNDVVAHPDGSYWFTDPPYGGQLYEGEPDAAGGPSNSGGKLNPRIGQPAGFTPGKRELPTNCYRIDPSGRVDLVVTEEQVPDPNGLCFSPDFKKLYVVSTGKGPGDSGPGGKGEIFVFDVGADNKLSNQKRFSDCTIDGVKCGPDGVRCDVNGNVWASSNAGRAVGYSGVTVWSPEGKLLGRIRLPEVCGNICFGGPKRNRLFMAASQSLYAVFTATQGAGPGLEHHHHHH”: the protein production entry is “not failed”. On to “MRRGDIGSCDRVDPSGKTLAGCDAGGDRGLGHGAFSSRAMWASDRTAARLLRPTLRQINTRLAGPPDPSISASMERAADMQTLLREIRNTPLLWMLVFVPIVLLAEAAAPHSHTLLFVLAVLAIVPLAALLSHATEAVAAKTGDAVGGLLNATLGNLTELIIAITALRAGQYMLVKASIAGAIVTNAVFMLGACLLLGGLRYHVQEYNRAGARLSSGLLLMATVALLAPSAVADLEHLPQGGGILNKLSVGISVLLIIAYALGLLFSLGTHKELFASADHGDDKEAHWPIGIAVGTLLVVTVLVALVSEIFVESVQKAAETFGMSPAFVGFIIVSLVGAAAEFAVAFGAARKDRLDMVVSIALGSASQIALFVAPALVLLSYVVGPTPMNLQFWPGAVTMVMIATVTSAFITASGRSAWFVGALMIFIYAVFALTLYVVPPAGEG”, for which the protein production result is given as “failed”. Consider “MRRITVGPFNRVEGDLEVRLDIDDGVVVSAEVTAPLYRGFEQILEGRPSLDALTLAPRICGICSVSQSMAAVAALRAVDGLHPAPNGLHAANIAHAAENAADHLTHFYVFFMPDFARDSYAAWPWHPAVAERFTATRGTAAREVLPARARLLEIMGLIAGKWPHSLAFQPGGTTRAIGLGERVRLLSIIADFRGFLESIVFGDDLEAVLALRSAAALESWRDGRIGDFARFLAIADDLALDKLGRGATSLMSFGAYQGLEAPLFAAGLYDPATSTPRVLDIDAITEDVSHAWMRDTAAEPALAQTLPDADRPGGYSWCKAPRLDSRPIEVGALARQAVDGDALIRDLVRRHGPNVRTRVIARLLETARLALAMDRWARQIALDAPFLDAAARVGEGAGIGLVEAARGSLGHWIELSGDRIRRYQIIAPTTWNFSPRDADGVAGPLEQALVGTPVGAEGAASVAVQHVVRSFDPCMVCTAH”, for which the protein production entry is “failed”. With “MRRLFPEESEALLFKTLNYIPIPILLSEALAVEGRRPSTHRIHRFMNHAFVEQLGYNLSEIPNIAAWFDTVYPDPIIREQAMLEWDSVVYESEQQGLSTAGFKTFIRCGTGQFRWFLINAQLTTENQSNLNIVTMRDVHQLQLLLEENERQSKTDLLTGLANRRQIEDVLAAAMAKSDRTQSSLCVVMCDIDFFKNINDNFGHLCGDDVLKIVASQLQHSAQAATCIARWGGEEFLIVLEHVVPESAGVLCEQLRGLIAATDYQSYGQHMQLTMSFGCVQYQANESLQSLLCRVDKALYQAKNGGRNQVVMD” the entry was “failed”.

For the sequence “MRRLNLILLLSAVTAALAFVISCKETNAERLEKMCGEWVSTGGKPPFTLWEEDGRYRVTVMHRNHTGGSEAETYLVRETEGVLFIETGFAVMMDYDREKDRIRLSPGGEYRRKSDGTLKQ”, the protein production result was “failed”. Turning to “MRRLNRFKAPDEKVNTLFQVYKTISFWKVVKNTVVVEFGRFFPWMGGKRNIYRACLGMKIGKKTAIAYKVMPDLFFPEKITIGENSIIGYHTTILTHEYLLSEYHVGEVVIGKNVMVGANVTILPGIEIGDGAIVAAGAVVSKDVPPESFAYGNPLVIKEKAALEHHHHHH”, the protein production entry is “not failed”.

Take “MRRPPVVGVLLAAGRGSRFDPDGTVNKLLAALPDGTPVAVQAARHLRAVLDDVVAVVPAAGTHGAEVERLAALLAEAGCEVLRCARAARGMGASLAAGVAARPHAGGWIIALADMPWLAPHTIARVAQALDARHCVAPFHQGRRGHPIGFGADYFAGLAALDGDEGARALIDPARLIRLDVGDAGTLRDVDTPADVCGA”: the protein production entry is “failed”.

“MRRRGKGGGSVFYHEGKGKWVAQLTWIDPATGRKVKREKHCETRKEAERALADMVVAQAKGLLTDPSRLTTRDFALDYLKRLEREGLRPNSIRLAQEELAHALPSLKDPKAHDPLGRMRLQEVKPVHVRAAVDRVAEAGYAPRTVGRVLMRLKALFREALRLELVARNPAEAVRLRLPKGEKTARALEPQEVARLLETAEASRSKDMALLLRLMLETGLRRGEALALQWRDIDLEAGELTVWRSWTKARGKGAFSEPKTPTAKRKVPLPRGLLLRLKARREELLERLTPEEVDGLFLVGGVKPVDPDAFNHYLRRLAERAGLGRVRVHDLRHTWATLALSRGVPLEVVSERLGHASPTITLNVYRHLLEEERRGWVLDLEELLYPAPRAQA”: the protein production result is “failed”.

For “MRRSLRHGFTALLTTWALLLPTVAVAQEPIDNVPEVTADNAETLEDIIDDALTPTTRLEAPNTDLCPYKESPSPARSTSEVVAPGAQTPALVPVPSVPAGGEKLATCGVITPNGFELPEDSDETITASAWMVFDIDSGEIIAAKDPHGRYRPASIIKVLLSLVAIDELNPTTVVTGTMEAANIEGSRVGVGEGGQYTVDQLLHGLLLASGNDAAYLLAQELGGDQATLEKVNALAKELGTQDTFVATYSGLDAPGMSTSAYDMSLIYQHAWQNPVFESIISTDHIDFPGWGDNEGFQVWNDNALFMNDPDGIGGKTGYTDDANHTFVGGLDRGGRRLAAVLLDSTVSDIRPWEQARLLIDASLPITPGSGVGQLGSGSANDVAPATPELPEPTDNLTSGEGGSQNTLLKLVVPIGIIVLLLIAALAWTFRSPKKKN”, the protein production result is on record as “failed”. Regarding “MRRVFGAKKNTEPPPSIQDASDRINKRGDSVEDKIKKLDVELCKYKEQLKKTRPGPAQEAVKARAMRVLKQKKMYEGQRDMLYNQTFNLDQVSFAAEGLKDAQQTMTALKSANKELKGMMKTVKIQDIDNLQDEMMDLMDVSSEIQESLGRSYNIPDGLDEDDLMGELDALEADMGNETEADGMPSYLQPDTETDYDSELNLPAAPTGHNGAPHGRAQVNF”, the protein production result was “failed”. With “MRRVISIFRKLSAVYCHTGNFAEGIRVCKYALGRFTEMEDKYKCIFTFNMSLYYNYLGEYGKALNAITGFESVIKATYEDRYYKVLLLKADCYYGAERYAESLSIYNKLISITLKDDFNNLCVYYNNMTQVYLRMGKRDMAVNCINTVINNLHNISDDFEALPQIYAELGKSYLMMADNDKSIKYLTIALKLSKDFKYYSVTKDILNELSKIKGNSNKLKLKDEFIILTENMGRSYDSLNHSLVFNIIQYYTRLGDVASINELCEYCKERKVG” the entry was “failed”. Turning to “MRRVLMVNFGVLLLFCFGVLSNSFGQDNGGDSDINSTTAVYIVTLRQASSLHLFQQEAEEVKRVRDQSKHGDTSKFTRPKLQPRNISRSRYWRSRRSAIAQAHDSLLRNALKGEKYIKLYSFHYLINGFAVFVSSQQAETLSRRREVANIVLDFSVRTATTYTPQFMGLPKGAWVKEGGYETAGEGIVIGFIDTGIDPTHPSFNGTDTSQRQYPIPNHFSGVCEVTPDFPSGSCNRKLVGARHFAQSAITRGIFNSSEDYASPFDGDGHGTHTASIAAGNHGVSAVVSGHNFGSASGIAPRAHISVYKALYKSFGGFAADVVAAIDQAAQDGVDILSLSITPNRRPPGVATFFNPLDMAMLSAVKAGIFVVQAAGNTGPSPKSMSSFSPWIFTVGAASHDRDYSNSIVLGNNVSIPGVGLALRTDEGKKYTMISALDALKNKSSVVDKDMYVGECQDYGSFDKDVIRGNLLICSYSIRFVLGLSTIKQALAVAKNLSAKGVVFYMDPYVLGFQINPTPMDMPGIIIPSAEDSKVLLKYYNSSLVRDGTTKEIVRFGAVAAIAGGQNANFSNRAPKIMYYSARGPDPQDSLFNDADILKPNLVAPGNSIWGAWSSAATESTEFEGESFAMMSGTSMAAPHVAGVAALVKQKFRKFSPSAIASALSTTSVLFDNKGEAIMAQRAYANPDQTISPATPFDMGNGFVNATAALDPGLIFDTSFEDYMSFLCGINGSAPVVFNYTGTNCLRNNATISGSDLNLPSITVSKLNNTRTVQRLMTNIAGNETYTVSLITPFDVLINVSPTQFSIASGETKLLSVILTAKRNSSISSFGGIKLLGNAGHIVRIPVSVTVKIASKQ”, the protein production entry was “failed”. With “MRSLCAGGRAIGLSGPDSRRHHRPQGPSEGASLILPDLSSSIAVGALIYWMLLLTIKHVFADFIFQNKWMAMGKDAKTGWALPLLAHCSVHLVMTTLLMLILAPRYWYIGVIDFLIHLAIDRLKGFLVATYDVTNQDRWFWWLIGTDQALHHLTGFGLAIVLAANP” the entry was “failed”; with “MRSQALRADVLMLITAVIWGSAFVAQTSGMNHIGPFLYSGLRFALGSLCLLPLVLRKTPTDRQPEPLLNRGLLLGGVLMGLALALGINLQQVGLMFTTVTNAGFITGLYVIVVPLLGLLIGHKTGLGTWLGAVLAVVGMFLLSVSDSFHVASGDWLQLIGAFVWGGHVILVGVFAGRHDPIRLAFLQFATCAVVSLILALCLEPLRWEAIVGAGPAILYGGVVAVGIGYTLQVIAQKDAIASHAAIILSLEAVFAAIAGAWLLDESLQARGYFGCALMLSGMLVAQLWPQKPHSSTTTQRA”, “failed”.

Take “MRSTKTNAMEAIMKKFMGIATAAVFGLGIFTTSAKAETIVTTDVLNVRENPTTESKVVGKLLDGYKVNVLHTENGWSKVQLNSGKEAFISADYTKDTYYVTANVLNVRAGANTDSEILGKLKKDDVIETTHQVQNDWIQFEYNGKTAYVHVPYLTGKAPVKVQPVAKVEKTTTVQDTAKVREAAKAQEVAETQAKAKAVEATKAREAAEAQAEVKAQEAAKAREAAKAQEAAKAQADAEAQAEVKAQEAAKAREAAKAQADAEAQAAAKAQEAAKAREAAKAQEAAEAREAAKAQEAREAAKAQEAAKAQKSATQQPVAKETETSTPSSSRELRVVATAYTADPLENGYKAGDQVKSALGHNLTANPNMKLIAVDPSVIPLGSKVWVEGYGVAIAGDTGGAIKGNKIDVLMPDKGSSSSWGRKTVTVKVLNLEHHHHHH”: the protein production entry was “not failed”. On to “MRSYRAQGPLPGFYHYYPGVPAVVGVRVEERVNFCPAVWNTGLSADPPLFGVSISPKRFTHGLLLKARRFSASFHPFGQKDLVHWLGSHSGREVDKGQAPHFLGHTGVPILEGAYAAYELELLEVHTFGDHDLFVGRVVAVWEEEGLLDEKGRPKPGLALLYYGKGLYGRPAEETFAP”, for which the protein production result is “not failed”.

Regarding “MRTERWWQDTSVTDHLFRQFGRFEFIQATRLLRHVPYHMDQTQWASEFQFGSSLALSFPKTEIEHLAQSDERIEMTSLVVGLTGTQGALPYTYTNKLKQSSRQQRREIQAFLGLFNHTLTVQYVDASLVHHLPVRYEVEQENHYLNILHALNGYISSHHQHNELDEYFAEFAGLMQGQNNTAHALTTMLTCIFKQKVMVKEFIREKFYLSDEQKTCLGGAQPSLLGINTFCGDTIEQIDGKIEIQIGPLKRKQYLDFLPSGRASTQLKHILATWCSPTLLVDLRLILDQDDVQPFCLDSVHQMGLGQGVFLTSQASNQDNQDTCYSLIGAVA”, the protein production result is given as “failed”. As for “MRTKNILAALALFLGISLPSLVEAANAYATGNVNVRTGPGTRYPRTGTIPAGATLTIRGCLNGYSWCEVIFAGQSGWASSNYLQATYQNRRRPVIHIGPVIGLPVIVHKPRPPHWEHRPRPPRPPHWGHRPRPPHWDHRPRPPRPQPRLEHHHHHH”, the entry is “not failed”. With “MRTLVAPTHAPKRRMLLALLATPALALAQPAWTQQPPPVKLDVPYVPTPDDAVARMLEMADVTAQDTVIDLGSGDGRIAIAAVRDRGARSAMGVDIDPERIAEARANARKAGLADRVTFVQQDLFDTDISKATVLTMYLLPDVNLKLRPRILNSLAPGTRVVSHAFTMGEWDSDRYELVDGRSLYLWVVPAHAAGDWQVEDPAGPFTLSVRQDFQKVTASAQRQGERLGVAEAALRGTDLRFTVDAGSGPRTYVGRIQGDRMTAVQAPGNESGWRATRRAP”, the protein production result is reported as “failed”.
